These results are taken from publication PMC12657230.

In the test the target is ECOR31 mCpol (minimal CRISPR polymerase) with residual ENLYFQ cleavage site (E. coli ECOR31). Briefly: SEC; HiLoad 16/600 Superdex 200 pg, 20 mM Tris-HCl pH 8.0, 500 mM KCl, 10% glycerol, 1 mM TCEP; elution compared with a molecular weight standard.

“ECOR31 mCpol (minimal CRISPR polymerase) with residual ENLYFQ cleavage site (enzyme)” registered a stoichiometry N of 2.
